Legend:
Settings in all cases: protein: recombinant; tags: N-terminal GFP; label: 5' fluorescein
GFP-Srs2 1-898 (WT) = GFP-Srs2 1-898 (WT) (Saccharomyces cerevisiae, UniProt P12954 1-898); assay: EMSA; no ATP; 30 mM Tris-HCl pH 7.6, 100 mM KCl, 2 mM MgCl2, 1 mM DTT, 0.2 mg/mL BSA, 30 °C 10 min, no ATP; 1.3 µM (nucleotides) ssDNA, 10-100 nM protein; 10% native PAGE in
Srs2 898 H650A = Srs2 898 H650A (Saccharomyces cerevisiae, UniProt P12954 1-898, H650A); assay: as above
Srs2 898 F68A = Srs2 898 F68A (Saccharomyces cerevisiae, UniProt P12954 1-898, F68A); assay: as above
Srs2 898 F285A = Srs2 898 F285A (Saccharomyces cerevisiae, UniProt P12954 1-898, F285A); assay: as above
Srs2 898 N70A = Srs2 898 N70A (Saccharomyces cerevisiae, UniProt P12954 1-898, N70A); assay: as above
Srs2 898 F219A = Srs2 898 F219A (Saccharomyces cerevisiae, UniProt P12954 1-898, F219A); assay: EMSA; no ATP; Kd within 10% of WT; 30 mM Tris-HCl pH 7.6, 100 mM KCl, 2 mM MgCl2, 1 mM DTT, 0.2 mg/mL BSA, 30 °C 10 min, no ATP; 1.3 µM (nucleotides) ssDNA, 10-100 nM protein; 10% native PAGE in
Srs2 898 H100A = Srs2 898 H100A (Saccharomyces cerevisiae, UniProt P12954 1-898, H100A); assay: as above
Srs2 898 R286A = Srs2 898 R286A (Saccharomyces cerevisiae, UniProt P12954 1-898, R286A); assay: EMSA; no ATP; Kd within 10% of WT (printed R268A); 30 mM Tris-HCl pH 7.6, 100 mM KCl, 2 mM MgCl2, 1 mM DTT, 0.2 mg/mL BSA, 30 °C 10 min, no ATP; 1.3 µM (nucleotides) ssDNA, 10-100 nM protein; 10% native PAGE in
Srs2 898 Y283A = Srs2 898 Y283A (Saccharomyces cerevisiae, UniProt P12954 1-898, Y283A); assay: EMSA; no ATP; Kd within 10% of WT (printed Y238A); 30 mM Tris-HCl pH 7.6, 100 mM KCl, 2 mM MgCl2, 1 mM DTT, 0.2 mg/mL BSA, 30 °C 10 min, no ATP; 1.3 µM (nucleotides) ssDNA, 10-100 nM protein; 10% native PAGE in

Srs2 898 F68A, sequence (P12954 1-898 F68A): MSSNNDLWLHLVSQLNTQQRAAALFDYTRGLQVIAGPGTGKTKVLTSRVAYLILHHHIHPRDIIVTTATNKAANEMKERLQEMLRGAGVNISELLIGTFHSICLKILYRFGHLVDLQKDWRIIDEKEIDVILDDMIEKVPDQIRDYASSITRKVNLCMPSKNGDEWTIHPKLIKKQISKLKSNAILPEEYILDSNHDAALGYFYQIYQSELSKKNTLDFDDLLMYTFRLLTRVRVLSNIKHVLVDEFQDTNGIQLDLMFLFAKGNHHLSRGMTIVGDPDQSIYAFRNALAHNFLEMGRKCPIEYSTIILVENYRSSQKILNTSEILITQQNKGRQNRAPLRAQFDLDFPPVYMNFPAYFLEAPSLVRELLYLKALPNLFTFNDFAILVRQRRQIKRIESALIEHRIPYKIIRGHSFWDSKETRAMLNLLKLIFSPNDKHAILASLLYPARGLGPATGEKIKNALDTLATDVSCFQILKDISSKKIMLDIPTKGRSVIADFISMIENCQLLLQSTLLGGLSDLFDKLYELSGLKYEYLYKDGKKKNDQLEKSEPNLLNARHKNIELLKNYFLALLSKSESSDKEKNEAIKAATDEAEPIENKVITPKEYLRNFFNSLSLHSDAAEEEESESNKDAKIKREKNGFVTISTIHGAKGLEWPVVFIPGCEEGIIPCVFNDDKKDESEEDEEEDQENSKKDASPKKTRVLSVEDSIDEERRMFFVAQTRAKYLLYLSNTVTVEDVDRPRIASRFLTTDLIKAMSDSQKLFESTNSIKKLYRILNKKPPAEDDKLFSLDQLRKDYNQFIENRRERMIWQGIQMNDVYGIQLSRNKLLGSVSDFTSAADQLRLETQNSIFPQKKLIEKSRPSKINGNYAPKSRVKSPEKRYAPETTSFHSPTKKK
GFP-Srs2 1-898 (WT), sequence (P12954 1-898): as the sequence (P12954 1-898 F68A) above, with A68F counted along it
Srs2 898 N70A, sequence (P12954 1-898 N70A): as the sequence (P12954 1-898 F68A) above, with A68F, N70A counted along it
Srs2 898 H650A, sequence (P12954 1-898 H650A): as the sequence (P12954 1-898 F68A) above, with A68F, H650A counted along it

B1: 40-nt ssDNA (ssDNA)
DNA: ATTAAGCTCTAAGCCATGAATTCAAATGACCTCTTATCAA
Kd (GFP-Srs2 1-898 (WT)): 0.029 ± 0.003 µM | Kd (Srs2 898 H650A): 0.046 ± 0.003 µM | Kd (Srs2 898 F68A): 0.031 ± 0.002 µM | Kd (Srs2 898 F285A): 0.041 µM | Kd (Srs2 898 N70A): 0.03 ± 0.003 µM | binding result (Srs2 898 F219A): binds | binding result (Srs2 898 H100A): binds | binding result (Srs2 898 R286A): binds | binding result (Srs2 898 Y283A): binds

Source: PMC10709652, “The separation pin distinguishes the pro– and anti–recombinogenic functions of Saccharomyces cerevisiae Srs2” (Nature Communications, 2023)
